Measured values reported in publication PMC5841405 (Nature Communications, 2018).

B1: Spindly_(1–142) (domain or fragment, human, UniProt Q96EA4-1 1-142, looked up)
chain: MEADIITNLRCRLKEAEEERLKAAQYGLQLVESQNELQNQLDKCRNEMMTMTESYEQEKYTLQREVELKSRMLESLSCECEAIKQQQKMHLEKLEEQLSRSHGQEVNELKTKIEKLKVELDEARLSEKQLKHQVDHQKELLS
notes: human Spindly, UniProt Q96EA4-1, residues 1-142 (includes the CC1-Box); Cloned in pCold1; source: E. coli BL21 (DE3), purified (Ni-NTA, TEV cleavage, Superdex 75)
B2: BICD2_(1–98) (domain or fragment, human, UniProt Q8TD16-1 1-98, looked up)
chain: MSAPSEEEEYARLVMEAQPEWLRAEVKRLSHELAETTREKIQAAEYGLAVLEEKHQLKLQFEELEVDYEAIRSEMEQLKEAFGQAHTNHKKVAADGES
notes: human BICD2, UniProt Q8TD16-1, residues 1-98 (includes the CC1-Box); Purified 'as described above' (pMAL-c2x); source: E. coli BL21 (DE3), purified (amylose column, TEV cleavage, gel filtration)
B3: Hook1_(11–238) (domain or fragment, human, UniProt Q9UJC3-1 11-238, looked up)
chain: KLPLCDSLMIWLQTFNTASPCQDVKQLTSGVAMAQVLHQIDAAWFNESWLSRIKEDVGDNWRIKASNVKKVLQGIMSYYHEFLGQQISEALIPDLNQITECSDPVELGRLLQLILGCAINCEKKQEHIQNIMTLEESVQHVVMTAIQELMSKEILSSPPNDAVGELEQQLKRALEELQEALAEKEELRQRCEELDMQVTTLQDEKNSLVSENEMMNEKLDQLDGSFDD
notes: human Hook1, UniProt Q9UJC3-1, residues 11-238 (Hook domain and CC1 region); In equilibrium between dimers and monomers; source: E. coli BL21 (DE3), purified (amylose column, TEV cleavage, gel filtration)
B4: Hook1_(11–443) (domain or fragment, human, UniProt Q9UJC3-1 11-443, looked up)
chain: KLPLCDSLMIWLQTFNTASPCQDVKQLTSGVAMAQVLHQIDAAWFNESWLSRIKEDVGDNWRIKASNVKKVLQGIMSYYHEFLGQQISEALIPDLNQITECSDPVELGRLLQLILGCAINCEKKQEHIQNIMTLEESVQHVVMTAIQELMSKEILSSPPNDAVGELEQQLKRALEELQEALAEKEELRQRCEELDMQVTTLQDEKNSLVSENEMMNEKLDQLDGSFDDPNTVVAKKYFHAQLQLEQLQEENFRLEAAKDDYRVHCEELEKQLIEFQHRNDELTSLAEETRALKDEIDVLRATSDKANKLESTVEIYRQKLQDLNDLRKQVKTLQETNMMYMHNTVSLEEELKKANAARTQLETYKRQVQDLHVKLSSESKRADTLAFEMKRLEEKHEALLKEKERLIEQRDTLKETNEELRCSQVQQDHLNQT
notes: human Hook1, UniProt Q9UJC3-1, residues 11-443 (extends to the end of CC2); Dimeric by SEC-MALS; source: E. coli BL21 (DE3), purified (amylose column, TEV cleavage, gel filtration)

Experiments:
[1] = biological target: the molecule itself; test: SEC-MALS; Superose 6 10/300 GL, 20 mM Tris pH 7.5, 100 mM NaCl, 1 mM DTT
[2] = biological target: the molecule itself; test: ITC; titration of the protein into buffer (dilution); dimer to monomers; 20 mM HEPES pH 7.5, 100 mM NaCl, 0.25 mM TCEP

Row | Protein | stoichiometry N [1] | Kd [2]
1 | B1 | 2 | 
2 | B2 | 2 | 
3 | B3 |  | 2.1 µM
4 | B4 | 2 | 
